Read-outs that look alike come from different tables or passages of the source.

This is an account of results in paper PMC9122593.

Data set [1] addresses T1, wtCas12a (Francisella novicida, UniProt A0Q7Q2 1-1300). The data set can be described thus: Mg2+.
Data set [2] has as its target T1, wtCas12a. The data set can be described thus: Mg2+. This is another data set of the same source.

T1 sequence (A0Q7Q2 whole entry): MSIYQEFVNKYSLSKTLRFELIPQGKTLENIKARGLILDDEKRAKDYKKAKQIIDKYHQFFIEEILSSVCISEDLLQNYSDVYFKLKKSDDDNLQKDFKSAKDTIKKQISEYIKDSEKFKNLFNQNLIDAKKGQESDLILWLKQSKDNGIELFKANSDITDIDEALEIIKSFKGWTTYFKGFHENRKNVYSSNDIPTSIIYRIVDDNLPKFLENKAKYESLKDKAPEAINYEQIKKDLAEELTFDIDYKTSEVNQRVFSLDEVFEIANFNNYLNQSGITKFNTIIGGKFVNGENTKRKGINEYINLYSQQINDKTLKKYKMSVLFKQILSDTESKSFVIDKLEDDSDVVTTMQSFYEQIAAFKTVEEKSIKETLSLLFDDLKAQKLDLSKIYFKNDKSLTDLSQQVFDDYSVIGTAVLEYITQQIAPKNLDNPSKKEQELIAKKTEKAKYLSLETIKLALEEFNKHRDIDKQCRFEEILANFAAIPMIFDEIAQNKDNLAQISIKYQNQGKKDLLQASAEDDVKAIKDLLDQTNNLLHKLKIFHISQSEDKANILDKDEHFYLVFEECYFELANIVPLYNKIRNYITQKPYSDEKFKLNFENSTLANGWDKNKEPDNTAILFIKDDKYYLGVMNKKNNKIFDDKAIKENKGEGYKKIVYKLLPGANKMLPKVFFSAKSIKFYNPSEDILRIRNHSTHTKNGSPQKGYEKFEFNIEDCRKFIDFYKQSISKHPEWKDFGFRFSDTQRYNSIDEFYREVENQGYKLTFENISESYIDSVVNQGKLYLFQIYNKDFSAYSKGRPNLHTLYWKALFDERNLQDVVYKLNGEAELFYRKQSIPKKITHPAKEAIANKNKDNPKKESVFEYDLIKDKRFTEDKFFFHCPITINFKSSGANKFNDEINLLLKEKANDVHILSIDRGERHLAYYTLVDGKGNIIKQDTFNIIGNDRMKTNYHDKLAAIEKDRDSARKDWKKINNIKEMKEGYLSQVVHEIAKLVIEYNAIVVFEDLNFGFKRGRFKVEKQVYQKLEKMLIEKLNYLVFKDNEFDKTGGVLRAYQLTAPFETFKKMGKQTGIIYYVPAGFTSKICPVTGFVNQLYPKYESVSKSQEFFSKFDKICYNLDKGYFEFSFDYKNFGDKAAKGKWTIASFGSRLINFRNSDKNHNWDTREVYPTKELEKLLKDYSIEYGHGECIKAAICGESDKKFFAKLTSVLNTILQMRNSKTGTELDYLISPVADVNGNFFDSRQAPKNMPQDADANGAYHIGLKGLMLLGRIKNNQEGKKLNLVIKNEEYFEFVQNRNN

On to AAUUUCUACUGUUGUAGAUUGUAAAGAAACAGUAAGAUAAU (mixed) [crRNA-1 + lambda ssDNA (T-strand), no activator], for which, in the data set with wtCas12a [1], the binding result is reported as “no binding”.

B1: crRNA-1/lambda-activator + lambda ssDNA (T-strand) (mixed)
RNA: AAUUUCUACUGUUGUAGAUUGUAAAGAAACAGUAAGAUAAU
DNA: CATCGGGTTGAGTATTATCTTACTGTTTCTTTACATAAAC
Take B1: in the data set with wtCas12a [2], the binding result is “binds”.
